Consider eight molecules from paper PMC5983026, “Intraring allostery controls the function and assembly of a hetero-oligomeric class II chaperonin” (The FASEB Journal, 2018).

Where a chain is given by its changes, count along the chain named. Names and notes keep the numbering of the source.

Data set [1] concerns the target T1, Ta RhaD (rhamnose dehydrogenase) (Thermoplasma acidophilum, UniProt Q9HK58).
T1 sequence (Q9HK58 1-254): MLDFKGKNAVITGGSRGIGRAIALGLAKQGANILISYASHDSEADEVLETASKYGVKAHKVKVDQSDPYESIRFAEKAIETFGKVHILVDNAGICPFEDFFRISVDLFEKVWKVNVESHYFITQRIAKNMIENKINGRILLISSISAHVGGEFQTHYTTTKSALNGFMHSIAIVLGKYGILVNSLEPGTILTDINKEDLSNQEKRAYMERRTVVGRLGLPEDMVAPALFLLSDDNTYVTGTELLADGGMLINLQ
In words: dehydrogenase activity, NADPH absorbance at […] nm. Type of data set: biochemical. The conditions noted are these: NADP+ co-substrate, 55 °C; read-out of refolding assay.

Substrate in data set [2]: Nc1ncnc2c1ncn2[C@@H]1O[C@H](COP(=O)(O)OP(=O)(O)OP(=O)(O)O)[C@@H](O)[C@H]1O
Briefly: steady-state ATPase, malachite green phosphate release. Type of data set: biochemical, Thermoplasma acidophilum. The conditions noted are these: 55 °C, pH 7.5, 25 mM Tris-HCl, 50 mM KCl, 20 mM MgCl2, 50 mM NaCl. From the text: steady-state ATPase, malachite green phosphate release on Ta thermosome α8β8

Data set [3] deals with the molecule itself. Briefly: SEC + native gel or EMSA; α (intraloop His6) and β co-expressed in E. coli; complexes purified to homogeneity as in ref. 29; integrity by Superose 6 Increase SEC (main peak ≅950 kDa) and native-PAGE 3–12% (≅1 MDa); subunit composition by Tris-Acetate SDS-PAGE (7%) of the purified proteins.
Substrate in data set [4]: Nc1ncnc2c1ncn2[C@@H]1O[C@H](COP(=O)(O)OP(=O)(O)OP(=O)(O)O)[C@@H](O)[C@H]1O
In words: steady-state ATPase, malachite green phosphate release. Type of data set: biochemical, Thermoplasma acidophilum. The note with it: single transition, 55 °C, pH 7.5, 25 mM Tris-HCl, 50 mM KCl, 20 mM MgCl2, 50 mM NaCl. An excerpt: steady-state ATPase, malachite green phosphate release on WTα16 (α-only thermosome)

Data set [5] deals with the molecule itself. In words: SEC + native gel or EMSA; α subunit expressed in E. coli in the absence of the β; purified α16 complex; integrity by SEC and native PAGE. For orientation: In EMSA bound probe runs differently from free probe, usually more slowly.
Data set [6] deals with the molecule itself. In words: SEC + native gel or EMSA; α (intraloop His6) and β co-expressed in E. coli; complexes purified to homogeneity as in ref. 29; integrity by Superose 6 Increase SEC (main peak ≅950 kDa) and native-PAGE 3–12% (≅1 MDa); subunit composition by Tris-Acetate SDS-PAGE (7%) of the purified proteins. This is another data set of the same source.
The mark [7] stands for this setting: single transition, hydrolysis assigned to the WT beta subunits.
[8] abbreviates: single transition, hydrolysis on the WT alpha subunits only.

Consider `C[C@@H]1OC(O)[C@H](O)[C@H](O)[C@H]1O` (stereo partly drawn) [L-rhamnose], for which, in data set [1], the “dehydrogenase activity, NADPH absorbance at 340 nm” value is “RhaD catalyzes the NADP^+-dependent oxidation of L-rhamnose”.

B1: Ta thermosome α8β8 (Thermoplasma acidophilum DSM 1728; P48424:D94A) (protein)
chain 1: MMTGQVPILVLKEGTQREQGKNAQRNNIEAAKAIADAVRTTLGPKGMDKMLVDSIGDIIISNDGATILKEMDVEHPTAKMIVEVSKAQDTAVGAGTTTAVVLSGELLKQAETLLDQGVHPTVISNGYRLAVNEARKIIDEIAEKSTDDATLRKIALTALSGKNTGLSNDFLADLVVKAVNAVAEVRDGKTIVDTANIKVDKKNGGSVNDTQFISGIVIDKEKVHSKMPDVVKNAKIALIDSALEIKKTEIEAKVQISDPSKIQDFLNQETNTFKQMVEKIKKSGANVVLCQKGIDDVAQHYLAKEGIYAVRRVKKSDMEKLAKATGAKIVTDLDDLTPSVLGEAETVEERKIGDDRMTFVMGCKNPKAVSILIRGGTDHVVSEVERALNDAIRVVAITKEDGKFLWGGGAVEAELAMRLAKYANSVGGREQLAIEAFAKALEIIPRTLAENAGIDPINTLIKLKAEHEKGRISVGVDLDNNGVGDMKAKGVVDPLRVKTHALESAVEVATMILRIDDVIASKKSTPPSGQGGQGQGMPGGGMPEY
chain 2: MIAGQPIFILKEGTKRESGKDAMKENIEAAIAISNSVRSSLGPRGMDKMLVDSLGDIVITNDGVTILKEMDVEHPAAKMMVEVSKTQDSFVGDGTTTAVIIAGGLLQQAQGLINQNVHPTVISEGYRMASEEAKRVIDEISTKIGADEKALLLKMAQTSLNSKSASVAKDKLAEISYEAVKSVAELRDGKYYVDFDNIQVVKKQGGAIDDTQLINGIIVDKEKVHPGMPDVVKDAKIALLDAPLEIKKPEFDTNLRIEDPSMIQKFLAQEENMLREMVDKIKSVGANVVITQKGIDDMAQHYLSRAGIYAVRRVKKSDMDKLAKATGASIVSTIDEISSSDLGTAERVEQVKVGEDYMTFVTGCKNPKAVSILVRGETEHVVDEMERSITDSLHVVASALEDGAYAAGGGATAAEIAFRLRSYAQKIGGRQQLAIEKFADAIEEIPRALAENAGLDPIDILLKLRAEHAKGNKTYGINVFTGEIEDMVKNGVIEPIRVGKQAIESATEAAIMILRIDDVIATKSSSSSSNPPKSGSSSESSED
notes: recombinant co-expression in E. coli BL21(DE3) Codon Plus-RIL, construct aK144HTTherm, intraloop His6-tag in each alpha subunit (kept), hexadecamer isolated on Superose 6, about 1 MDa
Take B1: in data set [2] (setting [7]), the Km (commonly the substrate concentration at which the rate is half of its maximum) is 82 ± 8.7 µM and the kcat was 2.4 ± 0.09 mol ATP/(mol active sites × min).

B2: Thermoplasma acidophilum thermosome α subunit T97V, with intraloop His6-tag (natural protein)
chain: B1 chain 1 with A94D, T97V
notes: Thermoplasma acidophilum thermosome α subunit, NCBI CAC12109; site-directed mutant of construct aK144HTTherm; also called T97Vα; not shown: His6, internal (intraloop), kept
B2: the stoichiometry N (commonly the number of molecules, sites or subunits per partner or assembly) in data set [3] turned out to be 16.

B3: Ta thermosome α8β8 (Thermoplasma acidophilum DSM 1728) (protein)
chain 1: B1 chain 1 with A94D
chain 2: B1 chain 2
notes: as for B1
With B3, in data set [2] (biphasic, tight site), the Km came to 15 ± 1.65 µM and the kcat is given as 2.15 ± 0.12 mol ATP/(mol active sites × min).

B4: Thermoplasma acidophilum thermosome α subunit, wild type, with intraloop His6-tag (natural protein)
chain: B1 chain 1 with A94D
notes: Thermoplasma acidophilum thermosome α subunit, NCBI CAC12109; also called WTα; weak subunit; not shown: His6, internal (intraloop), kept
With B4, in data set [4], the Km stood at 140 ± 15.7 µM. Further, in data set [4], the kcat is given as 0.33 ± 0.015 mol ATP/(mol active sites × min). The “stoichiometry N” value in data set [3] and in data set [5] was 16 in each case.

B5: Thermoplasma acidophilum thermosome α subunit D94E, with intraloop His6-tag (natural protein)
chain: B1 chain 1 with A94E
notes: Thermoplasma acidophilum thermosome α subunit, NCBI CAC12109; site-directed mutant of construct aK144HTTherm; also called Asp94α to a glutamate residue; not shown: His6, internal (intraloop), kept
With B5, the “stoichiometry N” value in data set [6] came to 16.

B6: Thermoplasma acidophilum thermosome α subunit D94K, with intraloop His6-tag (natural protein)
chain: B1 chain 1 with A94K
notes: Thermoplasma acidophilum thermosome α subunit, NCBI CAC12109; site-directed mutant of construct aK144HTTherm; also called D94Kα; not shown: His6, internal (intraloop), kept
B6: in data set [3], the “stoichiometry N” value was 16.

B7: Ta thermosome α8β8 (Thermoplasma acidophilum DSM 1728; P48425:D93K) (protein)
chain 1: B1 chain 1 with A94D
chain 2: B1 chain 2 with D93K
notes: as for B1
For B7, in data set [2] (setting [8]), the Km is 285 ± 35 µM and the kcat is on record as 1.7 ± 0.14 mol ATP/(mol active sites × min).
